Results reported in patent US20220025029A1 (Regeneron, published 2022).

B1: H4H2597B (antibody, human IgG4, V domains shown)
VH: EVQLVESGGGLVQPGGSLRLSCAVSGFTFSNYAMNWVRQAPGKGLEWVSVISDSGRSTYYADSVKGRFTISRDNSKNTLYLQMNSLRAEDTAVYFCAKRYNWNLHYFDYWGQGTTVTVSS
VL: EIVLTQSPDFQSVTPKEKVTITCRASQSIGGSLHWYQQKPDQSPKLLIKYASQSFSGVPSRFSGSGSGTDFTLTINSLEAEDAATYYCLQSSSLRTFGQGTKVEIKR
notes: human IgG4 Fc (H4H prefix)
B2: H4H2606B (antibody, human IgG4, V domains shown)
VH: EVQLVESGGGLVKPGGSLRLSCAASGFTFSDYYMNWIRQAPGKGLEWVSYISSSGNSIYYADSVKGRFTISRDNAKNSLFLQMSSLRAEDTAVYYCARDGRYNDRRRGYYWGQGTLVTVSS
VL: EIVMTQSPDFQSVTPKEKVTITCRASQSIGSSLHWYQQKPDQSPKLLIKYASQSFSGVPSRFSGSGSGTDFTLTINSLEAEDAATYYCLQSSSLRTFGQGTKVEIKR
notes: human IgG4 Fc (H4H prefix)
B3: H4H2797P (antibody, human IgG4, V domains shown)
VH: QVQLVESGGGVVLPGRSLRLSCAASGFTFSSYLMYWVRQAPGKGLEWVAVIWYDGSNKFYGDSVKGRFTISRDNSKNTLYLQMNSLRAEDTAVYYCARDNGNSGYEDSWNAFDIWGQGTMVTVSS
VL: DIQMTQSPSSLSASVGDRVTITCRASQDIYNYLAWFQQKPGKAPKSLIYAASSLQTGVPSQFSGSGSGTDFTLTISSLQPEDFATYYCQQYNNYPFTFGPGTKVDIK
notes: human IgG4 Fc (H4H prefix)
B4: H1M1241N (antibody, V domains shown)
VH: EVQLVESGGGLVKPGGSLRLSCAASGFTFSSYSMNWVRQAPGKGLEWVSSISSRSSYIYYADSVKGRFTISRDNAKNSLYLQMNSLRAEDTAVYYCARDHIVVVPGASYYYYGMDVWGQGTTVTVSS
VL: DIQMTQSPSSLSASVGDRVTITCRASQGIRNDLGWYQQKPGKAPKRLISAASSLQSGVPSRFSGSGSGTEFTLTISSLQPEDFATYYCLQHNSYPLTFGGGTKVEIK
notes: chimeric: human variable domains, mouse constant domains (H1M prefix, mouse Fc)
B5: H1M1230N (antibody, V domains shown)
VH: EVQLVESGGGLVQPGGSLRLSCTASGFIFSNFWMTWVRQAPGKGLEWVANIKQDGSETYCVDSVKGRFTISRDHAKNSLFLQMNSLRAEDTAVYYCARGAGTIYYYGMDVWGQGTTVIVSS
VL: DIQMTQSPSSVSASVGDRLTITCRASQDISSWLTWYQQKPGKAPNLLIYAASGLQSGVPSRFSGSGSGTDFTLTISNLQPEDFATYYCQQANSFPLTFGQGTRLEIK
notes: as for B4
B6: H2M1233N (antibody, mouse IgG2, V domains shown)
VH: QVVLVESGGGVVQPGRSLRLSCAASGFTFSSYGMHWVRQAPGKGLEWVAVIWYDGSNKYYVDSVKGRFTISRDNSNNTIYLQMNSLRAEDTAVYYCARSLIPVAGTDPIFGYWGQGTLVTVSS
VL: DIQMTQSPSTLSASVGDRVTITCRASQSVSSWLAWYQQKPGKAPKLLIFKASGLESGVPFRFSGSGSGTEFTLTISSLQPDDFATYYCQQYNTYSPTFGQGTKVEIK
notes: chimeric: human variable domains, mouse IgG2 Fc (H2M prefix)
B7: H2M1242N (antibody, mouse IgG2, V domains shown)
VH: EVQLVESGGGLVRPGGSLRLSCAASGFTFTSYAMNWVRQAPGKGLEWVSSISSYSSYIYIADSVKGRFTLSRDNAKNSLYLQMHSLRPEDTAVYFCAREGYSAYSYFDFWGRGTLVTVSS
VL: DIQMTQSPSTLSASVGDRVTITCRASQSVISWLAWYQQKPGKAPKLLIHRASSLESGVPSRFSGSGSGTEFTLTISGLQPDDFATYYCQQYNTYFPTFGQGTKVEVK
notes: as for B6
B8: H2M1237N (antibody, mouse IgG2, V domains shown)
VH: QVVLVESGGGVVQPGRSLRLSCAASGFTFSSYGMHWVRQAPGKGLEWVAVIWYDGSIKYYADSVKGRFTISRDNSNNTIYLQMNSLRAEDTAVYYCARALIPVAGTDPIFGYWGQGTLVTVSS
VL: DIQMTQSPSTLSASVGDRVTITCRASQSVSSWLAWYQQKPGKAPKLLIFKTSGLESGVPFRFSGSGSGTEFTLTISSLQPDDFATYYCQQYNTYSPTFGQGTKVEIK
notes: as for B6
B9: H1M1234N (antibody, V domains shown)
VH: QVQLQQSGPGLVKSSQTLSLTCAISGDSVSSNSVAWNWIRQSPSRGLEWLGRTYYRSKWYNDYAVSVKSRININPDTSKNHFSLQLNSVTPEDTAVYFCARAWNWYYLDYWGQGTLVTVSS
VL: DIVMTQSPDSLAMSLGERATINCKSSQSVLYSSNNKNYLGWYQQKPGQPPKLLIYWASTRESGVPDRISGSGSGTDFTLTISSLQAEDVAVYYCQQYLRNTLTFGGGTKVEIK
notes: as for B4
B10: H2M1236N (antibody, mouse IgG2, V domains shown)
VH: QVQLQESGPGLVKPSETLSLTCTVSGGSISNYYWSWIRQPPGKGLEWIGYIYYSGRTNYNPSLKSRVTISVDTSKNQFSLKLRSVTAADTAVYYCARHRITRTADSFDYWGQGTLVTVSS
VL: DIQMTQSPSSLSASVGDRVTITCQASQDITNYLNWYQQKPGKAPKLLIYDASNLETGVPSRFSGSGSGTDFTFTISSLQPEDVATFYCHQYGDLPYTFGQGTKLEIK
notes: as for B6
B11: H4H2594S (antibody, human IgG4, V domains shown)
VH: EVQLVESGGGLVKPGGSLRLSCAASGFTFSDYYMNWIRQAPGKGLEWVSYISSSGSSIYYADSVKGRFTISRDNAKNSLYLLMNSLRAEDTAVYYCARDGKYNSSPGDYWGQGTLVTVSS
VL: DIQMTQSPSSLSASVGDRVTIACRASQGISNYLAWFQQKPGKAPKSLIYAASSLQSGVPSKFSGSGSGTDFTLTISSLQPEDFATYYCQQYNSYPLTFGGGTKVEIKR
notes: human IgG4 Fc (H4H prefix)
B12: H4H2607B (antibody, human IgG4, V domains shown)
VH: EVQLVESGGGLVKPGGSLRLSCAASGFTFSDYYMNWIRQAPGKGLEWISYLSSSGSATYYADSVKGRFTISRDNAKNSLYLQMNSLRAEDTAVYYCARDGKYNTVAGDYWGQGTTVTVSS
VL: DIQLTQSPSSLSASVGDRVTITCRASQGIRNDLGWYQQKPGKAPKRLIYAASSLQSGVPSRFSGSGSGTEFTLTISSLQPEDFATYYCLQHNSYPYTFGQGTKVEIKR
notes: human IgG4 Fc (H4H prefix)
B13: H4H3467D (bispecific antibody, V domains shown)
VH 1: EVQLVESGGGLAQPGGSLRLSCAASGFTFNNYAMTWVRQAPGKGLDWVSAISDSGRSTFSADSVKGRFTISRDNSKNTLYLQMDSLRAEDTALYYCAKHRNWNYPVFDYWGQGTLVTVSS
VH 2: EVQLVESGGGLVKPGGSLRLSCAASGFTFRNYNINWVRQAPGKGLEWVSLISGSSSYIYYADSVKGRFTVSRDNAKNSLYLQMNSLRAEDTAVYYCARRTLSYYVMDVWGQGTTVTVSS
VL: DIQLTQSPSFLSASVGDRVTITCWASQGISSYLAWYQQKPGKAPKLLIYSASTLQSGVPSRFSGSGSGTEFTLTISSLQPEDFATYYCQQLNSYPFTFGPGTKVDIK
notes: Bi-specific with a common kappa light chain on both Fab arms; human IgG4 Fc by the H4H prefix
B14: H4H8751D (bispecific antibody, V domains shown)
VH 1: EVQLVESGGGLVQPGGSLRLSCAASGFTFSSYAMSWVRQAPGKGLEWVSAISGRGYNADYADSVKGRFTISRDNSKNTLYLQMNSLRAEDTAVYYCAKLEYFDYWGQGTLVTVSS
VH 2: EVQLVESGGGLVKPGGSLRLSCAASGFTFRNYNINWVRQAPGKGLEWVSLISGSSSYIYYADSVKGRFTVSRDNAKNSLYLQMNSLRAEDTAVYYCARRTLSYYVMDVWGQGTTVTVSS
VL: DIQMTQSPSTLSASVGDRVTITCRASQSISSWLAWYQQKPGKAPKLLIYKASSLESGVPSRFSGSGSGTDFTLTISSLRPEDFATYYCQQYNSYPLTFGGGTKVEIK
notes: as for B13

Target: T1, natural Fel d1 (Indoor Biotech, #NA-FD1-2) (cat, UniProt P30438 23-92; P30440 18-109)
T1 construct: Bought natural heterodimeric glycoprotein, chains linked by disulfide bonds; also called nFel d1; nFel d 1
T1 sequence (P30438 other isoform, or with tags, fused parts or gaps, chain 1 of 2): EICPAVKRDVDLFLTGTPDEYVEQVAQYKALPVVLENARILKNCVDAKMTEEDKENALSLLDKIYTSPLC
T1 sequence (P30440 18-109, chain 2 of 2): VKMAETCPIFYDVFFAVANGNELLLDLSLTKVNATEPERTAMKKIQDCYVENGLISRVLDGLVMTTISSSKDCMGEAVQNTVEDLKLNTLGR
Experiment: SPR (Biacore), mAb captured, natural Fel d1 injected, 25 C;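 note: rate constants obtained by fitting association and dissociation phases to a one-to-one binding model, with Kd and half-life derived from those rate constants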

Binder | Kd | koff | kon | t1/2
B1 | 0.65 nM | 0.0015 s⁻¹ | 2.31e+06 M⁻¹ s⁻¹ | 8 min
B2 | 0.765 nM | 0.000707 s⁻¹ | 924000 M⁻¹ s⁻¹ | 16 min
B3 | 35.4 nM | 0.00713 s⁻¹ | 202000 M⁻¹ s⁻¹ | 2 min
B4 | 3.63 nM | 0.000662 s⁻¹ | 182000 M⁻¹ s⁻¹ | 17 min
B5 | 3.37 nM | 0.000869 s⁻¹ | 258000 M⁻¹ s⁻¹ | 13 min
B6 | 1.4 nM | 0.000353 s⁻¹ | 253000 M⁻¹ s⁻¹ | 33 min
B7 | 3.14 nM | 0.000604 s⁻¹ | 192000 M⁻¹ s⁻¹ | 19 min
B8 | 0.982 nM | 0.000276 s⁻¹ | 281000 M⁻¹ s⁻¹ | 42 min
B9 | 18.3 nM | 0.00679 s⁻¹ | 371000 M⁻¹ s⁻¹ | 2 min
B10 | 4.55 nM | 0.00142 s⁻¹ | 312000 M⁻¹ s⁻¹ | 8 min
B11 | 0.878 nM | 0.000965 s⁻¹ | 1.1e+06 M⁻¹ s⁻¹ | 12 min
B12 | 0.307 nM | 0.00091 s⁻¹ | 2.97e+06 M⁻¹ s⁻¹ | 13 min

Target: T1, natural Fel d1 (Indoor Biotech, …)
Experiment: SPR (Biacore 2000), mAb captured via anti-human Fc, nFel d 1 injected, 25 C

Binder | 600 nM nFel d 1 Bound (RU) | Kd | koff | kon | t1/2
B13 | 35 RU | 0.25 nM | 0.000712 s⁻¹ | 2.85e+06 M⁻¹ s⁻¹ | 16 min
B14 | 30 RU | 0.347 nM | 0.00062 s⁻¹ | 1.79e+06 M⁻¹ s⁻¹ | 19 min
